Test results as given in PMC10625650, “The WW domain of IQGAP1 binds directly to the p110α catalytic subunit of PI 3-kinase” (The Biochemical journal, 2023).

Molecular target: T1, full-length untagged human p110α (catalytic subunit of PI 3-kinase) (human, UniProt P42336 1-1068, [35S]-methionine label)
T1 construct: human p110α (PIK3CA), full length, untagged; also called native p110α; unaltered wild-type p110α
Test: pull-down; 25 μg GST or GST fusion protein purified from bacteria, bound to glutathione-Sepharose beads; 1 pmol 35S-labelled in vitro translated protein (partially purified by ammonium sulfate precipitation); binding buffer 20 mM Tris–HCl pH 7.1, 125 mM KOAc, 0.5 mM EDTA, 1 mM DTT, 0.1% Tween20, 12.5% glycerol; sedimentation, SDS–PAGE, autoradiography or phosphorimaging; percent binding against input
Conditions: one partner purified

T1 sequence (P42336 whole entry): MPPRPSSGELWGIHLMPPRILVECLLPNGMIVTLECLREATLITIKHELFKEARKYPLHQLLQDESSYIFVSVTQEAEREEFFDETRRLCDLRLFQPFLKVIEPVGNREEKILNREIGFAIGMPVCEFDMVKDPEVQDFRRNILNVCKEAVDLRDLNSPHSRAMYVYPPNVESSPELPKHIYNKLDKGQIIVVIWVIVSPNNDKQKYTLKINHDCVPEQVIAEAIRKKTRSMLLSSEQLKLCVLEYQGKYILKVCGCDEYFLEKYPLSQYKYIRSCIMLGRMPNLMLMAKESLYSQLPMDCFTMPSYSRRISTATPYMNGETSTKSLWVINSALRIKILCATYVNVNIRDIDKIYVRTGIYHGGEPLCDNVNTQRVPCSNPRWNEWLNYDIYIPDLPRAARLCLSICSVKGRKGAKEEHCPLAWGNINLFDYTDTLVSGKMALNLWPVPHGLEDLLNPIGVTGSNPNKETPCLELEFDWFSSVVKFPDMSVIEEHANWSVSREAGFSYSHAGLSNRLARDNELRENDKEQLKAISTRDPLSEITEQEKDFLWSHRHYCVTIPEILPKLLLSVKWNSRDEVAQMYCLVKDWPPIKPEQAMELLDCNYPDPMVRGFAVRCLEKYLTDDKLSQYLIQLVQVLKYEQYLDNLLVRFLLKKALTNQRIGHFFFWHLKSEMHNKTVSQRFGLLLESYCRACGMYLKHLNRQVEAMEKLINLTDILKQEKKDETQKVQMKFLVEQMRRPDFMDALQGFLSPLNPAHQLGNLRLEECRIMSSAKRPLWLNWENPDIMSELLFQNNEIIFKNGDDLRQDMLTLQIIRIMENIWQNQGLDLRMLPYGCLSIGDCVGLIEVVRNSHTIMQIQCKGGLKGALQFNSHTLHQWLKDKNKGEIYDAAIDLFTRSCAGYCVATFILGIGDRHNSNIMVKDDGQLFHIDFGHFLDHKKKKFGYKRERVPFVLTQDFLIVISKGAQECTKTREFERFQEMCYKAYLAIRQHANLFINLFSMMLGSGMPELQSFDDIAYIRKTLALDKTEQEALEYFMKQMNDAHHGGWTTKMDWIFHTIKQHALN

B1: GST-WW (WW domain of human IQGAP1 fused to GST) (domain or fragment, UniProt P46940 679-719, looked up)
chain: GDNNSKWVKHWVKGGYYYYHNLETQEGGWDEPPNFVQNSMQ
notes: human IQGAP1, residues 679-719 holding the WW domain (the results name the WW domain as residues 684-710); in plasmid pGEXLB; also called GST-WW fusion protein; wild-type GST-WW; source: expressed in bacteria, purified on glutathione-Sepharose; not shown: GST (Schistosoma japonicum), N-terminal, kept
  Kd: 130 µM
